Measured values reported in patent US20230183713A1, “SITE-SPECIFIC RECOMBINASES FOR EFFICIENT AND SPECIFIC GENOME EDITING” (TECHNISCHE UNIVERSITÄt DRESDEN, published 2023).
Residue numbers refer to the chain shown, from its start. Names may count otherwise.

T1: Cre recombinase monomer with K201F mutation
T1 chain: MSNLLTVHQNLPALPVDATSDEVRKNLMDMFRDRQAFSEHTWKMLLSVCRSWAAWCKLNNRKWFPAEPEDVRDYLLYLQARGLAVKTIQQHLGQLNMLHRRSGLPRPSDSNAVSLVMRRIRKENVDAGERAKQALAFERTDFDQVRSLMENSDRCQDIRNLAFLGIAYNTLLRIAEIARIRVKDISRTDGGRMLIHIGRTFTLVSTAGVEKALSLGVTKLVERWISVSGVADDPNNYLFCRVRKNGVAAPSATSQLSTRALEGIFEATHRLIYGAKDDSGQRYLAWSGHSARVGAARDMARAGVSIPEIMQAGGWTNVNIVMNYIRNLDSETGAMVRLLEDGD

T2: Cre recombinase monomer with W315M mutation
T2 chain: T1 chain with F201K, W315M

T3: Cre recombinase monomer with Q311R mutation
T3 chain: T1 chain with F201K, Q311R

T4: Cre recombinase monomer with E176H mutation
T4 chain: T1 chain with E176H, F201K

T5: Cre recombinase monomer with Y324N mutation
T5 chain: T1 chain with F201K, Y324N

T6: Cre recombinase monomer with E176I mutation
T6 chain: T1 chain with E176I, F201K

T7: Cre recombinase monomer with K201W mutation
T7 chain: T1 chain with F201W

T8: Cre recombinase monomer with E176V mutation
T8 chain: T1 chain with E176V, F201K

T9: Cre recombinase monomer with Y324E mutation
T9 chain: T1 chain with F201K, Y324E

T10: Cre recombinase monomer with Y324M mutation
T10 chain: T1 chain with F201K, Y324M

T11: Cre recombinase monomer with W315I mutation
T11 chain: T1 chain with F201K, W315I

T12: Cre recombinase monomer with R292W mutation
T12 chain: T1 chain with F201K, R292W

B1: Cre recombinase monomer with R173L mutation (protein)
chain: T1 chain with R173L, F201K
B2: Cre recombinase monomer with R173T mutation (protein)
chain: T1 chain with R173T, F201K
B3: Cre recombinase monomer with R173S mutation (protein)
chain: T1 chain with R173S, F201K
B4: Cre recombinase monomer with R173N mutation (protein)
chain: T1 chain with R173N, F201K

Columns and labels:
[1] = molecular target: T1, Cre recombinase monomer with K201F …
[2] = molecular target: T2, Cre recombinase monomer with W315M …
[3] = molecular target: T3, Cre recombinase monomer with Q311R …
[4] = molecular target: T4, Cre recombinase monomer with E176H …
[5] = molecular target: T5, Cre recombinase monomer with Y324N …
[6] = molecular target: T6, Cre recombinase monomer with E176I …
[7] = molecular target: T7, Cre recombinase monomer with K201W …
[8] = molecular target: T8, Cre recombinase monomer with E176V …
[9] = molecular target: T9, Cre recombinase monomer with Y324E …
[10] = molecular target: T10, Cre recombinase monomer with Y324M …
[11] = molecular target: T11, Cre recombinase monomer with W315I …
[12] = molecular target: T12, Cre recombinase monomer with R292W …

Protein	Median dimer activity (recombination on loxP) [1] [%]	Median dimer activity (recombination on loxP) [2] [%]	Median dimer activity (recombination on loxP) [3] [%]	Median dimer activity (recombination on loxP) [4] [%]	Median dimer activity (recombination on loxP) [5] [%]	Median dimer activity (recombination on loxP) [6] [%]	Median dimer activity (recombination on loxP) [7] [%]	Median dimer activity (recombination on loxP) [8] [%]	Median dimer activity (recombination on loxP) [9] [%]	Median dimer activity (recombination on loxP) [10] [%]	Median dimer activity (recombination on loxP) [11] [%]	Median dimer activity (recombination on loxP) [12] [%]
B1	41	63	94	66	88							
B2			92	56		72	91	65				
B3			97					49	59			
B4			96							51	38	44
